IC50 data for 22 molecules are collected here from patent US20040048790A1 (published 2004).

Like-named read-outs stand apart in the source and are kept apart here. Non-standard residues stand in square brackets, D forms with d. No end group written: not given here. Abu = CC[C@H](N)C(=O)O

The target of one assay is HLA-A*2402 (human). Description: competition vs 125I probe peptide, purified HLA.
Assay [1] deals with HLA-B*0702 (human). Description: 125I-probe peptide inhibition, purified HLA.
In assay [2] the target is HLA-B*5401 (human). Description: 125I-probe peptide inhibition, purified HLA.
The target of assay [3] is HLA-B*5301 (human). As to the kind of experiment: 125I-probe peptide inhibition, purified HLA.
Assay [4] deals with HLA-B*5101 (human). As to the kind of experiment: 125I-probe peptide inhibition, purified HLA.
For a further assay, the target named is HLA-B*3501 (human). Description: 125I-probe peptide inhibition, purified HLA.
Assay [5] deals with HLA-B*5101 (human). Description: competition vs 125I probe peptide, purified HLA.
Assay [6] deals with HLA-B*0702 (human). As to the kind of experiment: competition vs 125I probe peptide, purified HLA.
Assay [7] addresses HLA-B*5301 (human). As to the kind of experiment: competition vs 125I probe peptide, purified HLA.
For assay [8], the target named is HLA-B*5401 (human). As to the kind of experiment: competition vs 125I probe peptide, purified HLA.
Assay [9] deals with HLA-A*0206 (human). Description: 125I-probe peptide inhibition, purified HLA.
The target of another assay is HLA-A*0203 (human). Description: 125I-probe peptide inhibition, purified HLA.
Assay [10] concerns the target HLA-A*0206 (human). As to the kind of experiment: 125I-probe peptide inhibition, purified HLA. This is another data set of the same source.
A further assay deals with HLA-A*6801 (human). As to the kind of experiment: 125I-probe peptide inhibition, purified HLA.

In general, IC50 refers to the concentration at which inhibition is half-maximal. A lower IC50 goes with inhibition by little substance. Take TYQGSYGFRF [p53.102.F10]: the IC50 in the assay with HLA-A*2402 was 30 nM.
For the molecule FPAAPTPAAPA [p53.76.F1 (11-mer)], the values for the IC50 with HLA-B*0702 [1] and with HLA-B*5401 [2] were 34 nM and 1.3 nM, respectively.
As to FPSWPLSSSI [p53.88.F1110], the values for the IC50 with HLA-B*5301 [3] and with HLA-B*5401 [2] were 8.5 nM and 2.4 nM, respectively.
For FPRMPEAAPPI [p53.63.F1111], the values for the IC50 with HLA-B*5301 [3] and with HLA-B*5401 [2] were 5470 nM and 2.9 nM, respectively.
In the case of FPRMPEAAPPV [p53.63F1], inhibition in the assay with HLA-B*5401 [2] was half-maximal at 0.3 nM (IC50).
For the molecule FPAAPTPAA [p53.76.F1 (9-mer)], the IC50 in the assay with HLA-B*5101 [4] amounted to 809 nM; with HLA-B*5301 [3], 620 nM; in the assay with HLA-B*5401 [2] it was 1 nM.
As to FPAPAAPTPA [p53.74.F1 (10-mer)], the IC50 in the assay with HLA-B*0702 [1] is 0.8 nM; with HLA-B*3501, 28 nM; with HLA-B*5401 [2] it was 1.1 nM.
As for FPTPAAPI [p53.79.F118], the IC50 with HLA-B*0702 [1] worked out at 90 nM; with HLA-B*5301 [3], 6200 nM; with HLA-B*5401 [2], 7.7 nM.
FPALNKMI [p53.127.F1I8]: in the assay with HLA-B*5101 [5], the IC50 is 220 nM.
Consider FPAPSWPI [p53.86.F118], for which the IC50 with HLA-B*0702 [1] is 120 nM; in the assay with HLA-B*3501 it was 4.8 nM; with HLA-B*5301 [3], 3.3 nM; in the assay with HLA-B*5401 [2], 1.6 nM.
FPAPSWPL [p53.86.F1]: the IC50 amounted to 3.1 nM with HLA-B*3501, 4 nM in the assay with HLA-B*5301 [3] and 9.1 nM in the assay with HLA-B*5401 [2].
FPAPAPSWPI [p53.84.F1110] showed an IC50 with HLA-B*5401 [2] of 1.2 nM.
As to FPAPAPSWPL [p53.84.F1], the IC50 in the assay with HLA-B*3501 came out at 5.1 nM; with HLA-B*5401 [2], 1.7 nM.
For the molecule FPAPAAPTPAA [p53.74.F1 (11-mer)], the IC50 in the assay with HLA-B*0702 [1] is 87 nM; in the assay with HLA-B*5401 [2], 2.1 nM.
FPILTIITI [p53.249.F1I9]: the IC50 in the assay with HLA-B*0702 [6] was determined as 74 nM; with HLA-B*5101 [5], 9 nM; with HLA-B*5301 [7], 4 nM; with HLA-B*5401 [8], 1.8 nM.
Turning to FPILTIITL [p53.249.F1], the IC50 stood at 6.5 nM with HLA-B*0702 [6] and 5 nM with HLA-B*5401 [8].
On to [Abu]QLAKT[Abu]PV [p53.135B1B7], for which, in the assay with HLA-A*0206 [9], inhibition was half-maximal at 67 nM (IC50).
As for [Abu]LLAKT[Abu]PV [p53.135B1L2B7], the IC50 with HLA-A*0203 turned out to be 7.7 nM; with HLA-A*0206 [10], 64 nM.
In the case of FPPVAPAPAI [p53.70.F1110], the IC50 with HLA-B*0702 [1] was found to be 290 nM; with HLA-B*5401 [2], 63 nM.
Take FPSWPLSSSV [p53.88.F1]: the IC50 was determined as 93 nM in the assay with HLA-B*5301 [7] and 0.3 nM with HLA-B*5401 [8].
SS[Abu]MGGMNK [p53.240 (9-mer SSBMGGMNK)] displayed an IC50 in the assay with HLA-A*6801 of 140 nM.
For the molecule FPLPSQAI [p53.33.F1], the IC50 with HLA-B*3501 was found to be 720 nM; with HLA-B*5301 [3] it was 291 nM; in the assay with HLA-B*5401 [2] it was 83 nM.
